Test results from article PMC3236198.

Target: ΔC SSB (Escherichia coli, UniProt P0AGE0)
Assay: EMSA; additional complexes at higher SSB:DNA ratios; EMSA: 20 mM Tris-HCl pH 8.0, 50 mM NaCl, 5% glycerol, 50 µg/ml BSA, 4 °C, 30 min, 1 pmol DNA with 0.2, 2 or 10 pmol SSB in 15 µl; fluorescence: Buffer A (composition not given in the material) with ~50 or ~200 mM NaCl
Details: protein: recombinant; chain copies: 4; label: 5'-32P

Sequence of ΔC SSB (P0AGE0 1-113, tags or fused parts left off): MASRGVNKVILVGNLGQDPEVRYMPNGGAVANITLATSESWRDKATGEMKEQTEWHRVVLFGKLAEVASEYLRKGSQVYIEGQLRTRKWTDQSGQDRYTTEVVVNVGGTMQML

B1: 79mer ssDNA (ssDNA)
DNA: GCACTAGTGCGGATAGCCCCGTGTTGTTGTCTGACCCCCGACCCCGACGGCAATGCGGGGCAATCCCCTGGAGGCCTGC
binding result: binds
